# Measurements published in the nanobody polyreactivity screen of Harvey et al. (2022).
# Assay: yeast display, Sf9 membrane polyspecificity reagent, FACS + sequencing; frameworks hold sequencing errors
# Method in brief: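 A synthetic nanobody library was expressed on Saccharomyces cerevisiae BJ5465 by galactose induction for 36–48 hours. The library was stained for 1 hour at 4 °C with 10% biotinylated, detergent-solubilized Sf9 membrane reagent and enriched with streptavidin microbeads before FACS. Low and high (top ~1%) gates were set on anti-HA fluorescence for expression and streptavidin fluorescence for reagent binding, and each polyreactivity label reflects the gate of origin.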
row,Sequence,polyreactivity (PSR sort gate)
1,QVQLVESGGGLVQAGGSLRLSSAASGSTFWYYAMGWYRQAPGKERELVAGITQSGGSTYYADSVKGRFTISRDNAKNTVYLQMNSLKPEDTAVYYCAKDGRVSGDFDYWGQGTQVTVSS,low polyreactivity
2,QVQLVESGGGLVQAGGSLRLSSAASGSTIGGYAMGWYRQAPGKERELVAAITRSGGRTYYADSVKGRFTISRDNSKNTVYLQMNSLKPEDTAVYYCATLVTIGRYDSWGQGTQVTVSS,high polyreactivity
3,QVQLVESGGGLVQAGGSLRLSSAASGSTIGVNARGWYRQAPGKERELVAAISSSGSSTYADSVKGRFTISRDNAKNTVYLQMNSLKPEDTAVYYCNKEWYPYKHNYWGQGTQVTVSS,low polyreactivity
4,QVQLVESGGGLVQAGGSLRLSSAASGSTIRTNAMGWYRQAPGKATELVAAISKSGGRTYYADSVKGRFTISRDNAKNTVYFQMNSLKPEDTAVYYCNVPRDVVPKVRAHDYWGQGTQVTVSS,high polyreactivity
5,QVQLVESGGGLVQAGGSLRLSSAASGSTLTFNAMGWYRQAPGKERELVAAISWSDTDTYYADSVKGRFTISRDNAKNTVYLQMNSLKPEDTAVYYCAATVSAYEMDYWGQGTQVTVSS,low polyreactivity
6,QVQLVESGGGLVQAGGSLRLSSAASGSTSPRNAMGWYRQAPGKERELVAAISSGGRTNYADSVKGRFTISRDNAKNTVYFQMHSLKPEDTAVYYCAAVVHSTYWAQGTQVTVSS,low polyreactivity
7,QVQLVESGGGLVQAGGSLRLSSAASGTFWWYAMGWYRQAPGQEMELVASINRGGSTYYADSVKGRFTISRDNAKNTVYLQMNSLKPEDTAVYYCAAQVDRKYRWFNSWGQGTQVTVSS,high polyreactivity
8,QVQLVESGGGLVQAGGSLRLSSAASGYIFDRYTMGWYRQAPGKERELVASISRRGGSTYYADSVKGRFTISRDNAKNTVYLQMNSLKPEDTAVYYCAAPNALGYLFQGFDYWGLGTQVTVSS,high polyreactivity
9,QVQLVESGGGLVQAGGSLRLSSAASGYIFGANGMGWYRQAPGKERELVATITSGGRTYYADSVKGRFTISRDNAKNNVYLQMNSLKPEDTAVYYCAAKLQYRWTWGYYYWGQGTQVTVSS,high polyreactivity
10,QVQLVESGGGLVQAGGSLRLSSAASVSTVTPYAMGWYRQAPGKERELVAVISESGGSTYYADSVKGRFTISRDNAKNTVYLQMNSLKPEDTAVYYCAKASYPEVLYYFFRGYTFDSWGQGTQVTVSS,low polyreactivity
11,QVQLVESGGGLVQAGGSLRLSSAATGRTFASNAMGWYRQAPGKERELVAAIRYRGDRTSYADSVKGRFTISRDNAKNTVYLQMNSLKPEDTAVYYCAAYYNSHGLDYWGQGTQVNVSS,low polyreactivity
12,QVQLVESGGGLVQAGGSLRLSSAATGRTFASYAMGWYRPAPGKERELVAVITRGVRTYYADSVKGRFTISRDNAKNTVYLEMNSLKPEDTAVYYCAKERYNANYDTSLYDYWGQGTQVTVSS,low polyreactivity
13,QVQLVESGGGLVQAGGSLRLSSAAYGIIIGYYAMGWYRQPPGKERELVAAISWSGGSTYYADSVKGRFTISRDNAKNTVYLQMNSLKPEDTAVYYCAAVVRRKSGNDTWRYNYWGQGTQVTVSS,high polyreactivity
14,QVQLVESGGGLVQAGGSLRLSSAPSGIIIDYYAMGWYRQSPGKERELVAAITSGGSTSYADSEKGGFTISRDNAKKTVYLQMNSLKPEDTAVYYCNTEPSGYESGYWGQGTQVTVSS,low polyreactivity
15,QVQLVESGGGLVQAGGSLRLSSAPSGSTFPGYAMGWYRQAPGKERQLVAAITGRGTSTYYADSVKGRFTISRDNAKNTVYLQMNSLKPEDTAVYYCAPYATFPTRYYYWGQGTQVTVSS,high polyreactivity
16,QVQLVESGGGLVQAGGSLRLSSASSGSTFSLNAMGWYRQAPGTERELVAAISSSTGRTSYADSVKGRFTISRDNAKNTVYLQMTSLNPEDTAVYYCAADVYESLYFPYDSWRQGTQVTVSS,low polyreactivity
17,QVQLVESGGGLVQAGGSLRLSSGASGLTIRRYAMGWSRQAPGKEREFVATISQNGGRTYYADSVKGRFTISRDNAKNTFYLQMNSLKPEDTAVYYCAAEDWRWGYDYWGQGTQVTVSS,high polyreactivity
18,QVQLVESGGGLVQAGGSLRLSSGASGRIFAVYAMGWYRQAPGKERELVAAISYIGGSTYYADSVKGRFTISRDNAKNSVYLQMNSLKPEDTAVYYCATDSHDDTGAYDYWGQGTQVTVSS,low polyreactivity
19,QVQLVESGGGLVQAGGSLRLSSPASGFNFKSNCMGWYRQAPGKERELIADIRRSVGSTYYADYVKGRFTISRDNAKNTVYLQMNSLKPEDTSVYYCNAKYIKGRDWGQCTQVTVSS,high polyreactivity
20,QVQLVESGGGLVQAGGSLRLSSPASGFTFLAYAMGWYRQAPGKERELVAAISASSGRTRYADSVKGRFTISRDNAKNTVYLQMISLKPEDTAVYYCAARYRGTYRRDYWGQGTQVTVSS,high polyreactivity
21,QVQLVESGGGLVQAGGSLRLSSSASGGIFRSYAMGWYRQAPGKERELVATITDRGGSTYYADSVKGRFTISRDNAKNTVYLQMNSLKPEDTAVYYCAAELVNRLWYRVVHFDYWGQGPQVTVSS,low polyreactivity

row,Sequence,polyreactivity (PSR sort gate)
1,QVQLVESGGGLVQAGGSLRLSSSASGRIFVYYAMGWYRQAPGKERELVAAITYSVDSTYYADSVKARFTISRDNAKNTVYLQMNSLKPEDTAVYYCATDVDWAYGYQYEYWGQGTQVTVSS,low polyreactivity
2,QVQLVESGGGLVQAGGSLRLSSSASGSIFDGYAMGWYRQAPGKEREFVAAIRWGDGIKYYADSVKGRFTISRDNAKNTVYLQMNSLTPEDTAVYYCAAVQHGHEPRVQDSYDYWGQGTQVTVSS,low polyreactivity
3,QVQLVESGGGLVQAGGSLRLSWAASGGIFKVYGMRWYRQAPGKERELVAAISWTTGGTYYADSVKGRFTISRDNAKNTVYLQMNSLKPEDTAVYYCAAEYADSWSAFDWNYYYWGQGTQVTVSS,high polyreactivity
4,QVQLVESGGGLVQAGGSLRLSWAASGRIIYGYAMGWYRQAPGKERELVAAITATYYADSVKGRFTISRDNAKNTVYLQMNSLKPEDTAVYYCNAYLYPKQPLSPPDPTFEGGYWGQGTQVTVSS,low polyreactivity
5,QVQLVESGGGLVQAGGSLRLTCAASASIFGHNTMGWNREAPGKERELVAAISVSGTRTYYADSVKGRFTISRVNAKNTVYLQMNSLKPEDTAVYYCAAEISRVRQGVAWSYKYEYWGQGTQVTVSS,high polyreactivity
6,QVQLVESGGGLVQAGGSLRLTCAASGFIFDEYAMGWYRQAPGKERELVAAISWSGSRTYYADSVKGRFTISRDNAKTTVYLQMNSLKPEDTAVYYCAKVTGVGAGRRNYWGQGTQVTVSS,high polyreactivity
7,QVQLVESGGGLVQAGGSLRLTCAASGFIFKFYAMGWSRQAPGKEREVVAAITSSGGSTYYADSVKGRFTISRDNAKNTVYLQMNSLKPEDTAVYYCAAQFPGVYYYIYDYWGQGTQVTVSS,high polyreactivity
8,QVQLVESGGGLVQAGGSLRLTCAASGFIFLPYAMGWYRQAPGKERELVAAITRGGRTYYADSVKGRFTISRDNAKNTVYLQMNSLKPEDTAVYYCAATTYLVWGYNYWGQGTQVTVSS,low polyreactivity
9,QVQLVESGGGLVQAGGSLRLTCAASGFIFNHNAMGWYRQAPGKERELVAAISSGGRTYYADSVKGRFTISRDNAKNTVYLQMNSLKPEDTAVYYCAKDTKYSSQYGKYGYWGQGTQVTVSS,low polyreactivity
10,QVQLVESGGGLVQAGGSLRLTCAASGFIFPRYAMGWYRQAPGKERELVAAISYSGGSTYYADSVKGRFTISRDNAKNTVYLQMNSLKPEDTAVYYCNKDFPPQGQLRNMYYWGQGTQVTVSS,high polyreactivity
11,QVQLVESGGGLVQAGGSLRLTCAASGFIFQNYAMGWYIQAPGKERELVSAIDFTDGSKYYADSVKGRYTISRDNAKNSVYLQMNSLKPEDTSVDYCNALDYLYGGIYLEEDYWGQGTQVTVSS,low polyreactivity
12,QVQLVESGGGLVQAGGSLRLTCAASGFIFSRYTMGWYRQAPGKERELVAAISRRGGNTYYADSVKGRFTISRDNAKNTVYLQMNSLKPEDTAVYYCAADYAWPLRVTGDYWGQGTQVTVSS,low polyreactivity
13,QVQLVESGGGLVQAGGSLRLTCAASGFIFTYYAMGWYRQAPGKERELVAAISSSGGRTAYADSVKGRYTISRDNAKNTVYLQMNSLKPEDTAVYYCAARIRASGGKDGYNSWGQGTQVTVSS,high polyreactivity
14,QVQLVESGGGLVQAGGSLRLTCAASGFIFWANAMGWYRPAPGKERELVAAIRYSGGRTYYADSVKGRYTISRDNAKNTVFLQKNSLKPEDTAVYYCAKEYKKYGGFVVENDYWGQGTQVNVSS,low polyreactivity
15,QVQLVESGGGLVQAGGSLRLTCAASGFILKYYAMGWYRHAPGKERHLVAAITVSGGSTYYADSVKGRFTISRDNAKNTVYLQMNSLKPEDTAVYYCNADYPRGGAGLLDYWGQCTQVTVSS,low polyreactivity
16,QVQLVESGGGLVQAGGSLRLTCAASGFISSENAMGWYRQAPGKERELVAAISSGGCTNYADSVKGRFTISRDNAKNTVYLQMNSLKEEDTAVYYCAATLPGWYNEDDSWGQGTHVTVSS,low polyreactivity
17,QVQLVESGGGLVQAGGSLRLTCAASGFNFWDYAMGWYRQAPGKERELFAAISDSGGDTYYADSVKGRFTISRDNAKNTVYLQMNSLKPEDTAVYYCASDVELWVFRGQQYDYWGQGTQVTVSS,low polyreactivity
18,QVQLVESGGGLVQAGGSLRLTCAASGFTFGSYVMGWYRQAPGKERELVADISIRGGSTYYADSVKGRFTISRDNAKNTVYLQMHSLKPEDTAVYYCNADPAFYYWEGIVGGADYDYWGIGTQVTVSS,low polyreactivity
19,QVQLVESGGGLVQAGGSLRLTCAASGFTFYLNAMGWYRQAPGKERELVAAITDDGDSTYYADSVKGRFTISRDNAKNTVYLQMNSLKPEDTAVYYCNTVYGPDLDGTEYDYWGQGTQVTVSS,low polyreactivity
20,QVQLVESGGGLVQAGGSLRLTCAASGFTFYWYTMGWYRQAPGKERELVATISGSGGRTYYADSVKGRFTISRDNAKNTVYLQMNSLKPEDTAVYYCNAGRPYKYGYWGQGTQVTVSS,high polyreactivity
